Biological target: FRMPD4, Q14CM0
Assay: holdup assay
Design: key: below the threshold = too weak to quantify, mostly under pKd 3.1 to 4
Conditions: plain residues with an end cap or a label only (N-terminal biotin on a linker: ado-ado)

Chain of FRMPD4, Q14CM0 (Q14CM0 67-160): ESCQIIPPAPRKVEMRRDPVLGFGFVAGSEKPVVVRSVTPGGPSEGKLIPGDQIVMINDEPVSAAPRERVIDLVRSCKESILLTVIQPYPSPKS

Binder | pKd
LETREPTNTL [GRIP1, Q9Y3R0] | below the threshold
TMQMSLKDLL [GLA, P06280] | 3.67

Biological target: T1, APBA2_2, Q99767
T1 sequence (Q99767 654-744, limits assumed, looked up): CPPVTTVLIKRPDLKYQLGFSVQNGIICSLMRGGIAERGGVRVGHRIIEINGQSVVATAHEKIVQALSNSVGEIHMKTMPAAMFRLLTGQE
Assay: holdup assay
Design: key: below the threshold = too weak to quantify, mostly under pKd 3.1 to 4
Conditions: plain residues with an end cap or a label only (N-terminal biotin on a linker: ado-ado)

Binder | pKd
LETREPTNTL [GRIP1, Q9Y3R0] | below the threshold
TMQMSLKDLL [GLA, P06280] | below the threshold

Biological target: MAGI2_3, Q86UL8
Assay: holdup assay
Design: key: below the threshold = too weak to quantify, mostly under pKd 3.1 to 4
Conditions: plain residues with an end cap or a label only (N-terminal biotin on a linker: ado-ado)

Chain of MAGI2_3, Q86UL8 (Q86UL8 600-682): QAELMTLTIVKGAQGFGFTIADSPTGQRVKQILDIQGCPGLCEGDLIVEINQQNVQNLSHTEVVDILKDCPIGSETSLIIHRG

Binder | pKd
LETREPTNTL [GRIP1, Q9Y3R0] | below the threshold
TMQMSLKDLL [GLA, P06280] | below the threshold

Biological target: T2, HTRA4, P83105
T2 sequence (P83105 378-476, limits assumed, looked up): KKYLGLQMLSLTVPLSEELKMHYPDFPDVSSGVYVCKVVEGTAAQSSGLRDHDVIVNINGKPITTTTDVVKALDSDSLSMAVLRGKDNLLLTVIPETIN
Assay: holdup assay
Design: key: below the threshold = too weak to quantify, mostly under pKd 3.1 to 4
Conditions: plain residues with an end cap or a label only (N-terminal biotin on a linker: ado-ado)

Binder | pKd
LETREPTNTL [GRIP1, Q9Y3R0] | below the threshold
TMQMSLKDLL [GLA, P06280] | below the threshold

Biological target: MAGI2_2, Q86UL8
Assay: holdup assay
Design: key: below the threshold = too weak to quantify, mostly under pKd 3.1 to 4
Conditions: plain residues with an end cap or a label only (N-terminal biotin on a linker: ado-ado)

Chain of MAGI2_2, Q86UL8 (Q86UL8 410-522): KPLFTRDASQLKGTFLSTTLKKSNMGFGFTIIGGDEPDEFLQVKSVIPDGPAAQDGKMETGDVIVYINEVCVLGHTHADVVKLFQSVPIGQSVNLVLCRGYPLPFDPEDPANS

Binder | pKd
LETREPTNTL [GRIP1, Q9Y3R0] | below the threshold
TMQMSLKDLL [GLA, P06280] | below the threshold

Biological target: T3, ARHGAP21, Q5T5U3
T3 sequence (Q5T5U3 45-169, limits assumed, looked up): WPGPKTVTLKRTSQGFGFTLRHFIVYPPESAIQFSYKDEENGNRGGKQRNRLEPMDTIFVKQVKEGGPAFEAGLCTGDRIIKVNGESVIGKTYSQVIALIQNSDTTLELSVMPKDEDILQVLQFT
Assay: holdup assay
Design: key: below the threshold = too weak to quantify, mostly under pKd 3.1 to 4
Conditions: plain residues with an end cap or a label only (N-terminal biotin on a linker: ado-ado)

Binder | pKd
LETREPTNTL [GRIP1, Q9Y3R0] | 4.04
TMQMSLKDLL [GLA, P06280] | 3.54

Biological target: GRIP2_7, Q9C0E4
Assay: holdup assay
Design: key: below the threshold = too weak to quantify, mostly under pKd 3.1 to 4
Conditions: plain residues with an end cap or a label only (N-terminal biotin on a linker: ado-ado)

Chain of GRIP2_7, Q9C0E4 (Q9C0E4 934-1023): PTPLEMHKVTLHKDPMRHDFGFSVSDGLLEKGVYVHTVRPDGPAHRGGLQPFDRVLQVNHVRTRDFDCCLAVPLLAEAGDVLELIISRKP

Binder | pKd
LETREPTNTL [GRIP1, Q9Y3R0] | below the threshold
TMQMSLKDLL [GLA, P06280] | below the threshold

Biological target: LAP2, Q96RT1
Assay: holdup assay
Design: key: below the threshold = too weak to quantify, mostly under pKd 3.1 to 4
Conditions: plain residues with an end cap or a label only (N-terminal biotin on a linker: ado-ado)

Chain of LAP2, Q96RT1 (Q96RT1 other isoform, or with tags, fused parts or gaps): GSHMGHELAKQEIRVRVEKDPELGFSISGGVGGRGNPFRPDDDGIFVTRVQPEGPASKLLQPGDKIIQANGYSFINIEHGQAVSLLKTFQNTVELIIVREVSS

Binder | pKd
LETREPTNTL [GRIP1, Q9Y3R0] | below the threshold
TMQMSLKDLL [GLA, P06280] | below the threshold

Biological target: MAGI2_5, Q86UL8
Assay: holdup assay
Design: key: below the threshold = too weak to quantify, mostly under pKd 3.1 to 4
Conditions: plain residues with an end cap or a label only (N-terminal biotin on a linker: ado-ado)

Chain of MAGI2_5, Q86UL8 (Q86UL8 915-1017): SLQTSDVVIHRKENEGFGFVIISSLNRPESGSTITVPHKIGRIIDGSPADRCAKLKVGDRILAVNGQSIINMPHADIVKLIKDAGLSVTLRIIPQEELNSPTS

Binder | pKd
LETREPTNTL [GRIP1, Q9Y3R0] | below the threshold
TMQMSLKDLL [GLA, P06280] | below the threshold

Biological target: DLG4_2, P78352
Assay: holdup assay
Design: key: below the threshold = too weak to quantify, mostly under pKd 3.1 to 4
Conditions: plain residues with an end cap or a label only (N-terminal biotin on a linker: ado-ado)

Chain of DLG4_2, P78352 (P78352 155-259): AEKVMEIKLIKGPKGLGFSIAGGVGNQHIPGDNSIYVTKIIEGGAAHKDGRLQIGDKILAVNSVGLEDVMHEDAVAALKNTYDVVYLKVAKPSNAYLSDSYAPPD

Binder | pKd
LETREPTNTL [GRIP1, Q9Y3R0] | below the threshold
TMQMSLKDLL [GLA, P06280] | 3.64

Biological target: MAGI1_1, Q96QZ7
Assay: holdup assay
Design: key: below the threshold = too weak to quantify, mostly under pKd 3.1 to 4
Conditions: plain residues with an end cap or a label only (N-terminal biotin on a linker: ado-ado)

Chain of MAGI1_1, Q96QZ7 (Q96QZ7 1-106): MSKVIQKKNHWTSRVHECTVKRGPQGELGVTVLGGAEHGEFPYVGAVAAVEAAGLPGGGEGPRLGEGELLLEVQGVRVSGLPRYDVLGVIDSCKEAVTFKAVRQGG

Binder | pKd
LETREPTNTL [GRIP1, Q9Y3R0] | below the threshold
TMQMSLKDLL [GLA, P06280] | below the threshold

Biological target: IL16_4, Q14005
Assay: holdup assay
Design: key: below the threshold = too weak to quantify, mostly under pKd 3.1 to 4
Conditions: plain residues with an end cap or a label only (N-terminal biotin on a linker: ado-ado)

Chain of IL16_4, Q14005 (Q14005 1229-1329): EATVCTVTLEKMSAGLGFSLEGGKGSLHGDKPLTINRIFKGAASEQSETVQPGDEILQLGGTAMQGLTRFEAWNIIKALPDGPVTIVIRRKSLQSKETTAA

Binder | pKd
LETREPTNTL [GRIP1, Q9Y3R0] | below the threshold
TMQMSLKDLL [GLA, P06280] | 3.69

Biological target: GRIP2_4, Q9C0E4
Assay: holdup assay
Design: key: below the threshold = too weak to quantify, mostly under pKd 3.1 to 4
Conditions: plain residues with an end cap or a label only (N-terminal biotin on a linker: ado-ado)

Chain of GRIP2_4, Q9C0E4 (Q9C0E4 446-548): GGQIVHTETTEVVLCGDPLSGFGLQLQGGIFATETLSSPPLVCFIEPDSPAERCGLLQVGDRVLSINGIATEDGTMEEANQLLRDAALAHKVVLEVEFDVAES

Binder | pKd
LETREPTNTL [GRIP1, Q9Y3R0] | below the threshold
TMQMSLKDLL [GLA, P06280] | below the threshold

Biological target: Inadl_5, Q8NI35
Assay: holdup assay
Design: key: below the threshold = too weak to quantify, mostly under pKd 3.1 to 4
Conditions: plain residues with an end cap or a label only (N-terminal biotin on a linker: ado-ado)

Chain of Inadl_5, Q8NI35 (Q8NI35 673-780): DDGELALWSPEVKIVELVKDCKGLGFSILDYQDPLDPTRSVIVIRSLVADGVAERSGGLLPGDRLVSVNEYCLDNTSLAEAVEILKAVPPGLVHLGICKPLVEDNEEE

Binder | pKd
LETREPTNTL [GRIP1, Q9Y3R0] | below the threshold
TMQMSLKDLL [GLA, P06280] | below the threshold

Biological target: GORASP1, Q9BQQ3
Assay: holdup assay
Design: key: below the threshold = too weak to quantify, mostly under pKd 3.1 to 4
Conditions: plain residues with an end cap or a label only (N-terminal biotin on a linker: ado-ado)

Chain of GORASP1, Q9BQQ3 (Q9BQQ3 1-208): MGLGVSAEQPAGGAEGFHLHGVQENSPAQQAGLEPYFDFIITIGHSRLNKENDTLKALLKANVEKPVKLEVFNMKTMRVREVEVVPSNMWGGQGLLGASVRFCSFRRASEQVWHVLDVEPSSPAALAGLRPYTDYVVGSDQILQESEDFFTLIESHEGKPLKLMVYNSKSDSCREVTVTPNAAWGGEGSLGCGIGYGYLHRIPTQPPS

Binder | pKd
LETREPTNTL [GRIP1, Q9Y3R0] | below the threshold
TMQMSLKDLL [GLA, P06280] | 3.61

Biological target: GOPC, Q9HD26
Assay: holdup assay
Design: key: below the threshold = too weak to quantify, mostly under pKd 3.1 to 4
Conditions: plain residues with an end cap or a label only (N-terminal biotin on a linker: ado-ado)

Binder | pKd
LETREPTNTL [GRIP1, Q9Y3R0] | below the threshold
TMQMSLKDLL [GLA, P06280] | 3.49

Biological target: LNX1_1, Q8TBB1
Assay: holdup assay
Design: key: below the threshold = too weak to quantify, mostly under pKd 3.1 to 4
Conditions: plain residues with an end cap or a label only (N-terminal biotin on a linker: ado-ado)

Chain of LNX1_1, Q8TBB1 (Q8TBB1 261-371): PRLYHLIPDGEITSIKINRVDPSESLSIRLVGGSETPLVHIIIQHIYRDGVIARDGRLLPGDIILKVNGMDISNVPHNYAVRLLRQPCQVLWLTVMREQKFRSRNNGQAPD

Binder | pKd
LETREPTNTL [GRIP1, Q9Y3R0] | below the threshold
TMQMSLKDLL [GLA, P06280] | 3.64

Biological target: Inadl_4, Q8NI35
Assay: holdup assay
Design: key: below the threshold = too weak to quantify, mostly under pKd 3.1 to 4
Conditions: plain residues with an end cap or a label only (N-terminal biotin on a linker: ado-ado)

Chain of Inadl_4, Q8NI35 (Q8NI35 547-651): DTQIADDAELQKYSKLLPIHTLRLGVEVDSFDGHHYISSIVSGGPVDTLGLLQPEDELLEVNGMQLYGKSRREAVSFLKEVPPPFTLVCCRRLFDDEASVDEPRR

Binder | pKd
LETREPTNTL [GRIP1, Q9Y3R0] | below the threshold
TMQMSLKDLL [GLA, P06280] | below the threshold

Biological target: HTRA1, Q92743
Assay: holdup assay
Design: key: below the threshold = too weak to quantify, mostly under pKd 3.1 to 4
Conditions: plain residues with an end cap or a label only (N-terminal biotin on a linker: ado-ado)

Chain of HTRA1, Q92743 (Q92743 360-477): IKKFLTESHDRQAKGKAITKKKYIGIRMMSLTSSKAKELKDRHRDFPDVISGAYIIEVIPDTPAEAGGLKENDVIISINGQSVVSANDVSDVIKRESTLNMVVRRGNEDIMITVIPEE

Binder | pKd
LETREPTNTL [GRIP1, Q9Y3R0] | 3.5
TMQMSLKDLL [GLA, P06280] | 3.74

Biological target: FRMPD3, Q5JV73
Assay: holdup assay
Design: key: below the threshold = too weak to quantify, mostly under pKd 3.1 to 4
Conditions: plain residues with an end cap or a label only (N-terminal biotin on a linker: ado-ado)

Chain of FRMPD3, Q5JV73 (Q5JV73 12-100): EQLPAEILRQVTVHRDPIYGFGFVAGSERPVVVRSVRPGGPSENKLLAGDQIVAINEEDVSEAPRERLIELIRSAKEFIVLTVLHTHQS

Binder | pKd
LETREPTNTL [GRIP1, Q9Y3R0] | below the threshold
TMQMSLKDLL [GLA, P06280] | below the threshold

Biological target: LDB3, O75112
Assay: holdup assay
Design: key: below the threshold = too weak to quantify, mostly under pKd 3.1 to 4
Conditions: plain residues with an end cap or a label only (N-terminal biotin on a linker: ado-ado)

Chain of LDB3, O75112 (O75112 1-94): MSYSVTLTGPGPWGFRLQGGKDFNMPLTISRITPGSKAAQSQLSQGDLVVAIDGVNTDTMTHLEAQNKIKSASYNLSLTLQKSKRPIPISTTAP

Binder | pKd
LETREPTNTL [GRIP1, Q9Y3R0] | below the threshold
TMQMSLKDLL [GLA, P06280] | below the threshold

Biological target: IL16_3, Q14005
Assay: holdup assay
Design: key: below the threshold = too weak to quantify, mostly under pKd 3.1 to 4
Conditions: plain residues with an end cap or a label only (N-terminal biotin on a linker: ado-ado)

Chain of IL16_3, Q14005 (Q14005 1107-1207): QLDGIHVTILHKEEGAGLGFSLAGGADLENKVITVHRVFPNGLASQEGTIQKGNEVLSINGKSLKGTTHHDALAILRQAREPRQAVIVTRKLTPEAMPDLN

Binder | pKd
LETREPTNTL [GRIP1, Q9Y3R0] | below the threshold
TMQMSLKDLL [GLA, P06280] | 3.5

Biological target: T4, LNX2_2, Q8N448
T4 sequence (Q8N448 334-432, limits assumed, looked up): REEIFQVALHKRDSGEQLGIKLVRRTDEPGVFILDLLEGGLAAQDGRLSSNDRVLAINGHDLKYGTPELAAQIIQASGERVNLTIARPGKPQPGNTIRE
Assay: holdup assay
Design: key: below the threshold = too weak to quantify, mostly under pKd 3.1 to 4
Conditions: plain residues with an end cap or a label only (N-terminal biotin on a linker: ado-ado)

Binder | pKd
LETREPTNTL [GRIP1, Q9Y3R0] | below the threshold
TMQMSLKDLL [GLA, P06280] | below the threshold

Biological target: DLG1_2, Q12959
Assay: holdup assay
Design: key: below the threshold = too weak to quantify, mostly under pKd 3.1 to 4
Conditions: plain residues with an end cap or a label only (N-terminal biotin on a linker: ado-ado)

Chain of DLG1_2, Q12959 (Q12959 314-412): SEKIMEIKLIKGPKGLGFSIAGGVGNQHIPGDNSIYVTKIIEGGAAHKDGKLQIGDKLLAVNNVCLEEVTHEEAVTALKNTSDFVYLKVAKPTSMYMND

Binder | pKd
LETREPTNTL [GRIP1, Q9Y3R0] | below the threshold
TMQMSLKDLL [GLA, P06280] | below the threshold

Biological target: PDLIM1, O00151
Assay: holdup assay
Design: key: below the threshold = too weak to quantify, mostly under pKd 3.1 to 4
Conditions: plain residues with an end cap or a label only (N-terminal biotin on a linker: ado-ado)

Chain of PDLIM1, O00151 (O00151 1-87): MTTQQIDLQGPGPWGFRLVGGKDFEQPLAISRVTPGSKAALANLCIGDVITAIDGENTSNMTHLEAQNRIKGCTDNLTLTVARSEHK

Binder | pKd
LETREPTNTL [GRIP1, Q9Y3R0] | below the threshold
TMQMSLKDLL [GLA, P06280] | below the threshold

Biological target: GRASP, Q7Z6J2
Assay: holdup assay
Design: key: below the threshold = too weak to quantify, mostly under pKd 3.1 to 4
Conditions: plain residues with an end cap or a label only (N-terminal biotin on a linker: ado-ado)

Chain of GRASP, Q7Z6J2 (Q7Z6J2 96-193): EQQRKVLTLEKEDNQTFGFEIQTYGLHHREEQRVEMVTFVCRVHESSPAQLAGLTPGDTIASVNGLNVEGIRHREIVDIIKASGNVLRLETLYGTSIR

Binder | pKd
LETREPTNTL [GRIP1, Q9Y3R0] | below the threshold
TMQMSLKDLL [GLA, P06280] | 4.6

Biological target: T5, LIN7C, Q9NUP9
T5 sequence (Q9NUP9 88-185, limits assumed, looked up): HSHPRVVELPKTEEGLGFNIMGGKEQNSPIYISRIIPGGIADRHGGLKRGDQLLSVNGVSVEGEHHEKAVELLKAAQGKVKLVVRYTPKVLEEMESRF
Assay: holdup assay
Design: key: below the threshold = too weak to quantify, mostly under pKd 3.1 to 4
Conditions: plain residues with an end cap or a label only (N-terminal biotin on a linker: ado-ado)

Binder | pKd
LETREPTNTL [GRIP1, Q9Y3R0] | 4.07
TMQMSLKDLL [GLA, P06280] | below the threshold

Biological target: T6, PDZRN3_1, Q9UPQ7
T6 sequence (Q9UPQ7 244-349, limits assumed, looked up): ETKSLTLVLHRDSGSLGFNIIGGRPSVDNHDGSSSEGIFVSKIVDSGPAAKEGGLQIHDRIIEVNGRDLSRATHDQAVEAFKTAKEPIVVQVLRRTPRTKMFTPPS
Assay: holdup assay
Design: key: below the threshold = too weak to quantify, mostly under pKd 3.1 to 4
Conditions: plain residues with an end cap or a label only (N-terminal biotin on a linker: ado-ado)

Binder | pKd
LETREPTNTL [GRIP1, Q9Y3R0] | below the threshold
TMQMSLKDLL [GLA, P06280] | 3.49

Biological target: TJP1_2, Q07157
Assay: holdup assay
Design: key: below the threshold = too weak to quantify, mostly under pKd 3.1 to 4
Conditions: plain residues with an end cap or a label only (N-terminal biotin on a linker: ado-ado)

Chain of TJP1_2, Q07157 (Q07157 181-274): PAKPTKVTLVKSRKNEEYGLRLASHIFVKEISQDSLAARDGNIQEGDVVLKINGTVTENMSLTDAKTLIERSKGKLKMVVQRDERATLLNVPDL

Binder | pKd
LETREPTNTL [GRIP1, Q9Y3R0] | below the threshold
TMQMSLKDLL [GLA, P06280] | below the threshold

Biological target: DLG4_3, P78352
Assay: holdup assay
Design: key: below the threshold = too weak to quantify, mostly under pKd 3.1 to 4
Conditions: plain residues with an end cap or a label only (N-terminal biotin on a linker: ado-ado)

Chain of DLG4_3, P78352 (P78352 306-403): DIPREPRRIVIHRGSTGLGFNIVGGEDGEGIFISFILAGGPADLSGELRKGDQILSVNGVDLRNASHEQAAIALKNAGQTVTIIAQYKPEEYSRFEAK

Binder | pKd
LETREPTNTL [GRIP1, Q9Y3R0] | below the threshold
TMQMSLKDLL [GLA, P06280] | 3.55

Biological target: Inadl_8, Q8NI35
Assay: holdup assay
Design: key: below the threshold = too weak to quantify, mostly under pKd 3.1 to 4
Conditions: plain residues with an end cap or a label only (N-terminal biotin on a linker: ado-ado)

Chain of Inadl_8, Q8NI35 (Q8NI35 1425-1530): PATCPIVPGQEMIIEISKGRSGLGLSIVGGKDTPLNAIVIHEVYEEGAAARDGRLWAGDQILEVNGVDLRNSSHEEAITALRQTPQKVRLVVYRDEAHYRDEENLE

Binder | pKd
LETREPTNTL [GRIP1, Q9Y3R0] | below the threshold
TMQMSLKDLL [GLA, P06280] | below the threshold

Biological target: DLG4_1, P78352
Assay: holdup assay
Design: key: below the threshold = too weak to quantify, mostly under pKd 3.1 to 4
Conditions: plain residues with an end cap or a label only (N-terminal biotin on a linker: ado-ado)

Chain of DLG4_1, P78352 (P78352 62-152): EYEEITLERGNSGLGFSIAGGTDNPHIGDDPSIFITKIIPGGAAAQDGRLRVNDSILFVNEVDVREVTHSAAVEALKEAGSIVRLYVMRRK

Binder | pKd
LETREPTNTL [GRIP1, Q9Y3R0] | below the threshold
TMQMSLKDLL [GLA, P06280] | below the threshold

Biological target: DLG2_3, Q15700
Assay: holdup assay
Design: key: below the threshold = too weak to quantify, mostly under pKd 3.1 to 4
Conditions: plain residues with an end cap or a label only (N-terminal biotin on a linker: ado-ado)

Binder | pKd
LETREPTNTL [GRIP1, Q9Y3R0] | below the threshold
TMQMSLKDLL [GLA, P06280] | 3.52

Reference: paper PMC9482650, “Quantitative fragmentomics allow affinity mapping of interactomes” (Nature Communications, 2022)
